Molecular target: TatC from Pisum sativum (thylakoidal) (Pisum sativum (endogenous in pea thylakoids))
Test: native gel or EMSA

TatC from Pisum sativum (thylakoidal) (natural protein)
stoichiometry N: 3

Reference: article doi:10.1101/2025.01.10.632409
